Laboratory results reported in patent publication US20200283521A1 (GRANULAR THERAPEUTICS, published 2020).
Changes are numbered by the printed parent chain. Numbers in names are those of the source. Read-outs that look alike come from different tables or passages of the source.

B1: MH1, IgG1-3M format (antibody, V domains shown)
VH: QVQLVQSGAEVKKPGASVKVSCKASGYTFTDYYMNWVRQAPGQGLEWMGRIYPGSGNTYYAQKFQGRVTMTRDTSTSTVYMELSSLRSEDTAVYYCARGVYYYDYWGQGTLVTVSS
VL: DIQMTQSPSSLSASVGDRVTITCRASQGIRTNLAWFQQKPGKAPKSLIYAASSLQSGVPSRFSGSGSGTDFTLTISSLQPEDFATYYCQQYNSYPRTFGGGTKVEIK
notes: human IgG1 with L234A/L235A/G237A; also called C-KIT-MH1
B2: MH5, IgG1-3M format (antibody, V domains shown)
VH: B1 VH
VL: B1 VL with A50S, N92A, S93N
notes: human IgG1 with L234A/L235A/G237A
B3: MH3 (antibody, IgG1, V domains shown)
VH: B1 VH
VL: B1 VL with A50S, S93A
notes: IgG1
B4: MH7 (antibody, IgG1, V domains shown)
VH: B1 VH
VL: B1 VL with A50S, R96H
notes: IgG1
B5: MH2 (antibody, IgG1, V domains shown)
VH: B1 VH
VL: B1 VL with A50S, N92A
notes: IgG1
B6: h37M-IgG1-3M (antibody, V domains shown)
VH: QVQLVQSGAEVKKPGASVKLSCKASGYTFTDYYINWVRQAPGKGLEWIARIYPGSGNTYYNEKFKGRATLTADKSTSTAYMQLSSLRSEDTAVYFCARGVYYFDYWGQGTTVTVSS
VL: DIVMTQSPSSLSASVGDRVTITCKASQNVRTNVAWYQQKPGKAPKALIYSASYRYSGVPDRFTGSGSGTDFTLTISSLQPEDFADYFCQQYNSYPRTFGGGTKVEIK
notes: human IgG1 with L234A/L235A/G237A; also called C-KIT-h37M

Legend:
[1] = biological target: T1, cynomolgus monkey C-KIT-Fc (cynomolgus monkey); test: HTRF epitope competition in solution; competitor IgG1-3M titrated against terbium-labelled h37M IgG1 on cyno C-KIT-Fc
T1 construct: also called cyno C-KIT-Fc

[2] = biological target: T2, human C-KIT, full length, on cells (human, UniProt P10721 26-976); test: cell-based or functional assay
[3] = biological target: cynomolgus monkey C-KIT, full length, on CHO-K1 cells (cynomolgus monkey); test: cell-based or functional assay
[4] = biological target: T3, human C-KIT-Fc (human, UniProt P10721 26-524); test: HTRF epitope competition in solution; competitor IgG1-3M titrated against terbium-labelled h37M IgG1 on biotinylated human C-KIT-Fc
T3 construct: also called biotinylated human C-KIT-Fc; not shown: Fc part not described

[5] = biological target: T2, human C-KIT, full length, on cells; test: cell-based or functional assay; remark: listed apart in the source
[6] = biological target: T2, human C-KIT, full length, on cells; test: flow cytometry, C-KIT-transfected CHO-K1 cells, IgG1 format
[7] = biological target: T3, human C-KIT-Fc; test: HTRF competition on human C-KIT-Fc against terbium-labelled h37M IgG1
[8] = biological target: T3, human C-KIT-Fc; test: as above; remark: listed apart in the source
[9] = biological target: T2, human C-KIT, full length, on cells; test: flow cytometry, C-KIT-transfected CHO-K1 cells, IgG1 format; remark: listed apart in the source
[10] = biological target: T3, human C-KIT-Fc; test: HTRF epitope competition in solution; unlabelled h37M IgG1-3M titrated against terbium-labelled h37M IgG1 on biotinylated human C-KIT-Fc

Binder	IC50 (read off the curve) [1]	IC50 (read off the curve) [4]	binding result [6]	binding result [7]	further results
B1	~0.02 µg/mL	~0.01 µg/mL	–	–	Human C-KIT CHO FabZAP IC50 (pM) [2]: 8.7 pM; TF-1 FabZAP IC50 (pM) [2]: 51.1 pM; TF-1 proliferation IC50 [2]: 2.86 nM; Cyno C-KIT CHO FabZAP IC50 (pM) [3]: 14 pM; TF-1 proliferation, fold less potent than h37M [5]: 26.5 fold
B2	~0.02 µg/mL	~0.03 µg/mL	–	–	–
B3	–	–	binds	binds	–
B4	–	–	–	–	binding result [8]: binds; binding result [9]: binds
B5	–	–	binds	binds	–
B6	–	–	–	–	IC50 (read off the curve) [10]: ~0.01 µg/mL
